The values that follow come from patent US20230365662A1.

Where a chain is given by its changes, count along the chain named. Names may count otherwise. “And” between values parts separate entries of the source, which are not always exact repeats. Equal entries are not always repeated.

To fix the notation:
B1: KB001 mouse Fab FASEBA VH S30T (Fab, V domains shown)
VH: EVQLKQSGPGLVAPSQSLSITCTVSGFSLTIYSVHWVRQPPGKGLEWLGMIWGGGSSDYNSALKSRLSISKDNSKSQVFLKMNSLQTDDTAMYYCARNGNFYAMDYWGQGTSVTVSS
VL: QIVLTQSPAIMSASLGERVTMTCTASSSVSSSFLHWYQQKPGSSPQLWIYSTSNLASGVPARFSGSGSGTSYSLTISSMEAEDAATYYCHQYHHSPYIYTFGGGTKLEIK
B2: KB001 mouse Fab FASEBA VH S30M (Fab, V domains shown)
VH: B1 VH with T30M
VL: B1 VL
B3: KB001 mouse Fab FASEBA VH H35V (Fab, V domains shown)
VH: B1 VH with T30S, H35V
VL: B1 VL
B4: KB001 mouse Fab FASEBA VH S56L (Fab, V domains shown)
VH: B1 VH with T30S, S56L
VL: B1 VL
B5: KB001 mouse Fab FASEBA VH S56N (Fab, V domains shown)
VH: B1 VH with T30S, S56N
VL: B1 VL
B6: KB001 mouse Fab FASEBA VH D58S (Fab, V domains shown)
VH: B1 VH with T30S, D58S
VL: B1 VL
B7: KB001 mouse Fab FASEBA VH G53P (Fab, V domains shown)
VH: B1 VH with T30S, G53P
VL: B1 VL
B8: KB001 mouse Fab FASEBA VH G55N (Fab, V domains shown)
VH: B1 VH with T30S, G55N
VL: B1 VL
B9: KB001 mouse Fab FASEBA VH S30L (Fab, V domains shown)
VH: B1 VH with T30L
VL: B1 VL
B10: KB001 mouse Fab FASEBA VH S30W (Fab, V domains shown)
VH: B1 VH with T30W
VL: B1 VL
B11: KB001 mouse Fab FASEBA VH G53S (Fab, V domains shown)
VH: B1 VH with T30S, G53S
VL: B1 VL
B12: KB001 mouse Fab FASEBA VH V34M (Fab, V domains shown)
VH: B1 VH with T30S, V34M
VL: B1 VL
B13: KB001 mouse Fab FASEBA VH S56T (Fab, V domains shown)
VH: B1 VH with T30S, S56T
VL: B1 VL
B14: KB001 mouse Fab FASEBA VH S57R (Fab, V domains shown)
VH: B1 VH with T30S, S57R
VL: B1 VL
B15: KB001 mouse Fab FASEBA VH I31L (Fab, V domains shown)
VH: B1 VH with T30S, I31L
VL: B1 VL
B16: KB001 mouse Fab FASEBA VH I31P (Fab, V domains shown)
VH: B1 VH with T30S, I31P
VL: B1 VL
B17: KB001 mouse Fab FASEBA VH S30H (Fab, V domains shown)
VH: B1 VH with T30H
VL: B1 VL
B18: KB001 mouse Fab FASEBA VH S57T (Fab, V domains shown)
VH: B1 VH with T30S, S57T
VL: B1 VL
B19: KB001 mouse Fab FASEBA VH S57H (Fab, V domains shown)
VH: B1 VH with T30S, S57H
VL: B1 VL
B20: KB001 mouse Fab FASEBA VH S56P (Fab, V domains shown)
VH: B1 VH with T30S, S56P
VL: B1 VL
B21: KB001 mouse Fab FASEBA VH Y32W (Fab, V domains shown)
VH: B1 VH with T30S, Y32W
VL: B1 VL
B22: KB001 mouse Fab FASEBA VH S30K (Fab, V domains shown)
VH: B1 VH with T30K
VL: B1 VL
B23: KB001 mouse Fab FASEBA VH Y32F (Fab, V domains shown)
VH: B1 VH with T30S, Y32F
VL: B1 VL
B24: KB001 mouse Fab FASEBA VH S56M (Fab, V domains shown)
VH: B1 VH with T30S, S56M
VL: B1 VL
B25: KB001 mouse Fab FASEBA VH I31E (Fab, V domains shown)
VH: B1 VH with T30S, I31E
VL: B1 VL
B26: KB001 mouse Fab FASEBA VH S57M (Fab, V domains shown)
VH: B1 VH with T30S, S57M
VL: B1 VL
B27: KB001 mouse Fab FASEBA VH I31F (Fab, V domains shown)
VH: B1 VH with T30S, I31F
VL: B1 VL
B28: KB001 mouse Fab FASEBA VH S30F (Fab, V domains shown)
VH: B1 VH with T30F
VL: B1 VL
B29: KB001 mouse Fab FASEBA VH I31Q (Fab, V domains shown)
VH: B1 VH with T30S, I31Q
VL: B1 VL
B30: KB001 mouse Fab FASEBA VH Y32N (Fab, V domains shown)
VH: B1 VH with T30S, Y32N
VL: B1 VL
B31: KB001 mouse Fab FASEBA VH I51V (Fab, V domains shown)
VH: B1 VH with T30S, I51V
VL: B1 VL
B32: KB001 mouse Fab FASEBA VH Y32S (Fab, V domains shown)
VH: B1 VH with T30S, Y32S
VL: B1 VL
B33: KB001 mouse Fab FASEBA VH S56E (Fab, V domains shown)
VH: B1 VH with T30S, S56E
VL: B1 VL
B34: KB001 mouse Fab FASEBA VH I51Q/M92I (Fab, V domains shown)
VH: B1 VH with T30S, I51Q, M92I
VL: B1 VL
B35: KB001 mouse Fab FASEBA VH I31W (Fab, V domains shown)
VH: B1 VH with T30S, I31W
VL: B1 VL
B36: KB001 mouse Fab FASEBA VH G55D (Fab, V domains shown)
VH: B1 VH with T30S, G55D
VL: B1 VL
B37: KB001 mouse Fab FASEBA VH I31N (Fab, V domains shown)
VH: B1 VH with T30S, I31N
VL: B1 VL

For the assay, the target named is HRgpA-6H (Porphyromonas gingivalis) (UniProt P28784). The assay is described as follows: ELISA on coated HRgpA-6H.
Sequence of UniProt P28784 (P28784 228-991 limits assumed): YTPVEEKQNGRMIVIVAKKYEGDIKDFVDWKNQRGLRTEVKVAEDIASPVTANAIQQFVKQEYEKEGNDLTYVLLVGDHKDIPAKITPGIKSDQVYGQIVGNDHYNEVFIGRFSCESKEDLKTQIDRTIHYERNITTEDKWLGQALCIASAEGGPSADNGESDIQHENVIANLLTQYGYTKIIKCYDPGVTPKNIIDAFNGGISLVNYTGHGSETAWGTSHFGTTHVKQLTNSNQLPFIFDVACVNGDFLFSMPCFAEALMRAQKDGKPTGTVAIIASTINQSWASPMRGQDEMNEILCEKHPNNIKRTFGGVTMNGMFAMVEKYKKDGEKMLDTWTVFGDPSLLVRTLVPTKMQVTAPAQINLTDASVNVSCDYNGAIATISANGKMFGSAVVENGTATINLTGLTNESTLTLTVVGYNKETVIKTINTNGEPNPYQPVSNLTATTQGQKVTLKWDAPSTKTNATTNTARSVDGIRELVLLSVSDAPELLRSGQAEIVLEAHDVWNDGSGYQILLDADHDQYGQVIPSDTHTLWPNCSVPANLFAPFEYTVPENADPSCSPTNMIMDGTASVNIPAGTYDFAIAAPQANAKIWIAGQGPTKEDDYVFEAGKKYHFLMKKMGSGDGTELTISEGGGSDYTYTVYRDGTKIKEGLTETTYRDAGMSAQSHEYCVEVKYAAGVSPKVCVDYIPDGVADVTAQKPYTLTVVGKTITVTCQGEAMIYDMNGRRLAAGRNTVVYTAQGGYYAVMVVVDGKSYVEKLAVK
As for B1, the OD450nm was 0.457 and the Ratio OD(Variant)/OD(WT) is 0.906.

For the molecule B2, the OD450nm is 0.437 and the Ratio OD(Variant)/OD(WT) was 0.866.

For B3, the OD450nm came out at 0.706 and the Ratio OD(Variant)/OD(WT) came out at 0.856.

As to B4, the OD450nm is 0.71 and the Ratio OD(Variant)/OD(WT) stood at 0.807.

Turning to B5, the OD450nm was 0.759 and 0.743; the Ratio OD(Variant)/OD(WT) is 0.863 and 0.845.

B6: the OD450nm is 0.646 and the Ratio OD(Variant)/OD(WT) was found to be 0.817.

As to B7, the OD450nm was 0.754 and 0.716; the Ratio OD(Variant)/OD(WT) was 0.947 and 0.899.

Regarding B8, the OD450nm is 0.652 and the Ratio OD(Variant)/OD(WT) was 0.81.

Turning to B9, the OD450nm turned out to be 0.468 and the Ratio OD(Variant)/OD(WT) turned out to be 0.928.

As to B10, the OD450nm came to 0.469 and the Ratio OD(Variant)/OD(WT) came to 0.93.

With B11, the OD450nm stood at 0.686 and the Ratio OD(Variant)/OD(WT) worked out at 0.861.

B12: the OD450nm is 0.793 and 0.791; the Ratio OD(Variant)/OD(WT) was 0.962 and 0.959.

With B13, the OD450nm was 0.838 and 0.844 and 0.853; the Ratio OD(Variant)/OD(WT) was 0.953 and 0.96 and 0.97.

As to B14, the OD450nm came out at 0.796 and the Ratio OD(Variant)/OD(WT) turned out to be 0.905.

Consider B15, for which the OD450nm is 0.442 and 0.431; the Ratio OD(Variant)/OD(WT) is 0.876 and 0.854.

With B16, the OD450nm is 0.471 and 0.428; the Ratio OD(Variant)/OD(WT) is 0.934 and 0.848.

On to B17, for which the OD450nm is 0.482 and the Ratio OD(Variant)/OD(WT) is 0.955.

Take B18: the OD450nm was 0.843 and 0.849; the Ratio OD(Variant)/OD(WT) was 0.958 and 0.965.

Take B19: the OD450nm was determined as 0.8 and the Ratio OD(Variant)/OD(WT) was 0.91.

Consider B20, for which the OD450nm is 0.855 and 0.788 and 0.824; the Ratio OD(Variant)/OD(WT) was 0.972 and 0.896 and 0.937.

Consider B21, for which the OD450nm was 0.731 and 0.718 and 0.747; the Ratio OD(Variant)/OD(WT) was 0.864 and 0.848 and 0.882.

As for B22, the OD450nm was 0.46 and 0.467 and 0.493; the Ratio OD(Variant)/OD(WT) is 0.912 and 0.926 and 0.977.

As to B23, the OD450nm was 0.814 and 0.807; the Ratio OD(Variant)/OD(WT) was 0.962 and 0.953.

As for B24, the OD450nm stood at 0.809 and the Ratio OD(Variant)/OD(WT) worked out at 0.92.

For the molecule B25, the OD450nm was 0.42 and 0.458 and 0.428; the Ratio OD(Variant)/OD(WT) is 0.833 and 0.908 and 0.848.

With B26, the OD450nm amounted to 0.748 and the Ratio OD(Variant)/OD(WT) worked out at 0.85.

With B27, the OD450nm worked out at 0.45 and the Ratio OD(Variant)/OD(WT) came to 0.892.

B28: the OD450nm worked out at 0.438 and the Ratio OD(Variant)/OD(WT) was 0.868.

As to B29, the OD450nm was 0.44 and 0.439; the Ratio OD(Variant)/OD(WT) is 0.872 and 0.87.

In the case of B30, the OD450nm was 0.826 and 0.775; the Ratio OD(Variant)/OD(WT) was 0.976 and 0.916.

As to B31, the OD450nm was 0.798 and the Ratio OD(Variant)/OD(WT) worked out at 0.903.

B32: the OD450nm is 0.717 and 0.783 and 0.718; the Ratio OD(Variant)/OD(WT) is 0.847 and 0.925 and 0.848.

As for B33, the OD450nm was 0.772 and 0.713; the Ratio OD(Variant)/OD(WT) was 0.878 and 0.811.

For the molecule B34, the OD450nm came out at 0.722 and the Ratio OD(Variant)/OD(WT) was determined as 0.817.

With B35, the OD450nm was 0.459 and the Ratio OD(Variant)/OD(WT) turned out to be 0.91.

As for B36, the OD450nm turned out to be 0.697 and the Ratio OD(Variant)/OD(WT) turned out to be 0.866.

With B37, the OD450nm amounted to 0.429 and the Ratio OD(Variant)/OD(WT) worked out at 0.85.
